# Source: US20100028342A1 (published 2010)
# Values joined by “and” are separate entries in the source; they are usually repeats but may differ in a detail not shown here. Identical values can stand only once.
# B1: antibody A12 (fully human IgG1 anti-IGF-IR antibody) (antibody, V domains shown)
# VH: EVQLVQSGAEVKKPGSSVKVSCKASGGTFSSYAISWVRQAPGQGLEWMGGIIPIFGTANYAQKFQGRVTITADKSTSTAYMELSSLRSEDTAVYYCARAPLRFLEWSTQDHYYYYYMDVWGKGTTVTVSS
# VL: SSELTQDPAVSVALGQTVRITCQGDSLRSYYATWYQQKPGQAPILVIYGENKRPSGIPDRFSGSSSGNTASLTITGAQAEDEADYYCKSRDGSGQHLVFGGGTKLTVLG
# notes: also called A12 IgG
# B2: antibody 2F8 (fully human IgG1 anti-IGF-IR antibody) (antibody, V domains shown)
# VH: B1 VH
# VL: SSELTQDPAVSVALGQTVRITCQGDSLRSYYASWYQQKPGQAPVLVIYGKNNRPSGIPDRFSGSSSGNTASLTITGAQAEDEADYYCNSRDNSDNRLIFGGGTKLTVLS
# notes: also called 2F8 IgG
# Experiments:
# [1] = biological target: T1, native human IGF-IR on human tumor cells (human, UniProt P08069 31-1367); assay: competition: blocking of IGF-I binding to 8226 cells (myeloma)
# T1 construct: whole, on cells; also called native IGF-IR; endogenous cellular IGF-IR
# [2] = biological target: T1, native human IGF-IR on human tumor cells; assay: competition: blocking of IGF-I binding to OV90 cells (ovarian)
# [3] = biological target: T1, native human IGF-IR on human tumor cells; assay: competition: blocking of IGF-I binding to BXPC3 cells (pancreatic)
# [4] = biological target: T1, native human IGF-IR on human tumor cells; assay: competition: blocking of IGF-I binding to MCF7 cells (breast)
# Method: (§1) The anti-IGF-IR antibodies were tested for blocking of radiolabeled ligand binding to native IGF-IR on human tumor cells (FIG. 1C). Assay conditions were performed according to Arteaga and Osborne (Cancer Res. 49:6237-41 (1989)), with minor modifications. MCF7 human breast cancer cells were seeded into 24 well dishes, and cultured overnight. Sub-confluent monolayers were washed 2-3 times in binding buffer (Iscove's Medium/0.1% BSA) and antibody added in binding buffer. […] The wells were then washed three times with ice-cold PBS/0.1% BSA. Monolayers were then lysed with 200 μl 0.5N NaOH and counted in a gamma counter.
# [5] = biological target: T1, native human IGF-IR on human tumor cells; assay: competition: blocking of IGF-I binding to T47D cells (breast)
# [6] = biological target: T1, native human IGF-IR on human tumor cells; assay: competition: blocking of IGF-I binding to HPAC cells (pancreatic)
# [7] = biological target: T1, native human IGF-IR on human tumor cells; assay: competition: blocking of IGF-I binding to HT-29 cells (colorectal)
# [8] = biological target: T1, native human IGF-IR on human tumor cells; assay: competition: blocking of 125I-IGF-I binding to IGF-IR on MCF7 cells
# Method: as §1
# [9] = biological target: T2, recombinant mouse IGF-IR (mIGF-IR) (mouse, UniProt Q60751 31-933, limits assumed); assay: ELISA on immobilized recombinant mouse IGF-IR
# T2 construct: also called mIGF-ER
# T2 sequence (Q60751 31-933 limits assumed): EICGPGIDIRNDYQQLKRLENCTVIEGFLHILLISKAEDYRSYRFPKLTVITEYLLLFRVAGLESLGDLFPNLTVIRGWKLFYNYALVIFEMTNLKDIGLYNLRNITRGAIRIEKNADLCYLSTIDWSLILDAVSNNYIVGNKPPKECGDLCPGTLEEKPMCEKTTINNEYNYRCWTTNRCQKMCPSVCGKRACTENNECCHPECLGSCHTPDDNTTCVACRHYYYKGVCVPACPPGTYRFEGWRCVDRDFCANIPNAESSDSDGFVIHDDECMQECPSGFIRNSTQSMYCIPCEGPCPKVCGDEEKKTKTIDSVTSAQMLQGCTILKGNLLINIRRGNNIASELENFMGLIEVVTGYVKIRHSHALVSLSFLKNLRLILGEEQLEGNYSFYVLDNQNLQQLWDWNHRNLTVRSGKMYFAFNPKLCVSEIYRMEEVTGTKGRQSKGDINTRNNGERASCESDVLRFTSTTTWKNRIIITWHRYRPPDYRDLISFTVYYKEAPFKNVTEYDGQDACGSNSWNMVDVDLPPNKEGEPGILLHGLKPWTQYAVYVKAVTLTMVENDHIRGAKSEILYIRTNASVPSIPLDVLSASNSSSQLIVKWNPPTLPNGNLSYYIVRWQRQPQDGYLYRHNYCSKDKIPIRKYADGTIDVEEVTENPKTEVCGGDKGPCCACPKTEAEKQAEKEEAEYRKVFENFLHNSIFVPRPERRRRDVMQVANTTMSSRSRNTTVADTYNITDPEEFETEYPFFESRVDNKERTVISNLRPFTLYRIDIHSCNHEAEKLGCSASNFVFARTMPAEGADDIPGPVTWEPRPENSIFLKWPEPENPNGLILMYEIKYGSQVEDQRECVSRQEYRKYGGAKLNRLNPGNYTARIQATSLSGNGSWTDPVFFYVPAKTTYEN
# [10] = biological target: T1, native human IGF-IR on human tumor cells; assay: competition: blocking of IGF-I binding to SK-ES1 cells (Ewing sarcoma)
Binder,IC50 [1],IC50 [2],IC50 [3],IC50 [4],IC50 [5],IC50 [6],IC50 [7],IC50 [8],EC50 [9],IC50 [10]
B1,20 nM,6 nM,20 nM,3 nM,6 nM,10 nM,10 nM,0.45 µg/mL,0.3 to 0.5 nM,2 nM
B2,–,–,–,–,–,–,–,30 nM and 4.5 µg/mL,–,–
